Source: PMC5951767

Key:
[1] = molecular target: RelA (p65), subunit of RelA-p50 heterodimer;p50, subunit of RelA-p50 heterodimer (mouse (murine);mouse (murine), UniProt Q04207;P25799 19-321;39-350, |); test: stopped-flow fluorescence
RelA (p65) homodimer = RelA (p65) homodimer (UniProt Q04207 19-321); test: stopped-flow fluorescence
RelA (p65) homodimer, sequence (Q04207 19-321): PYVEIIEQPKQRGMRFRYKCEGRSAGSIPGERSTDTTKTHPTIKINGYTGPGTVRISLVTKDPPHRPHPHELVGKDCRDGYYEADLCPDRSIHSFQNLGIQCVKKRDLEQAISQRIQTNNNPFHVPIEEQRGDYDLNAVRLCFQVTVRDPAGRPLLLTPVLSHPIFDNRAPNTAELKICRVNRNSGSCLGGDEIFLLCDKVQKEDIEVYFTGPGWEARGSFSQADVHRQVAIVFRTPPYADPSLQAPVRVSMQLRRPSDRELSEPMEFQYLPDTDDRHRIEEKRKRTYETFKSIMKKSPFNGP

RelA (p65), subunit of RelA-p50 heterodimer;p50, subunit of RelA-p50 heterodimer, sequence (Q04207 19-321, chain 1 of 2): as the sequence (Q04207 19-321) above
RelA (p65), subunit of RelA-p50 heterodimer;p50, subunit of RelA-p50 heterodimer, sequence (P25799 39-350, chain 2 of 2): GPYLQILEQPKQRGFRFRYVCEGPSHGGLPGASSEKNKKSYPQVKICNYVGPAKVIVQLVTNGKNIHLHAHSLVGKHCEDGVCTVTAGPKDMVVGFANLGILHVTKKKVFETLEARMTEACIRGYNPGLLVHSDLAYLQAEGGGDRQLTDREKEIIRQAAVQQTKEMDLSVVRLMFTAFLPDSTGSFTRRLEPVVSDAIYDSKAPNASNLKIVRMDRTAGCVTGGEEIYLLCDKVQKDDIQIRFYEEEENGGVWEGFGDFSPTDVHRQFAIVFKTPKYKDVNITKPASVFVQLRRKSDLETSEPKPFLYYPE

GGGAAATTCCTCCCCCAGGAATTTCCC (structured_DNA, 5' AmMC6 amino linker) [IFN-kB hairpin]
binding result [1]: binds | binding result (RelA (p65) homodimer): binds
